B1: UNC93B1-GFP, wild type [modified: N-glycosylated at N251 and N272; N-glycosylated at N251 and N272] [not stated] / TLR9-myc (in UNC93B1 KO iBMDMs) [not stated] (parent)
chain 1: MEVEPPLYPVAGAAGPQGDEDRHGVPDGPEAPLDELVGAYPNYNEEEEERRYYRRKRLGVVKNVLAASTGVTLTYGVYLGLLQMQLILHYDETYREVKYGNMGLPDIDSKMLMGINVTPIAALLYTPVLIRFFGTKWMMFLAVGIYALFVSTNYWERYYTLVPSAVALGMAIVPLWASMGNYITRMSQKYYEYSHYKEQDEQGPQQRPPRGSHAPYLLVFQAIFYSFFHLSFACAQLPMIYFLNNYLYDLNHTLINVQSCGTKSQGILNGFNKTVLRTLPRSKNLIVVESVLMAVAFLAMLMVLGLCGAAYRPTEEIDLRSVGWGNIFQLPFKHVRDFRLRHLVPFFIYSGFEVLFACTGFALGYGVCSMGLERLAYLLIAYSLGASASSVLGLLGLWLPRSVPLVAGAGLHLLLTLSLFFWAPAPRVLQHSWIFYFVAALWGVGSALNKTGLSTLLGILYEDKERQDFIFTIYHWWQAVAIFVVYLGSSLPMKAKLAVLLVTLVAAAASYLWMEQKLQQGLVPRQPRIPKPQHKVRGYRYLEEDNSDESDMEGEQGQGDCAEDEAPQAGPLGAEPAGPCRKPCPYEQALGGDGPEEQ
chain 2: LGTLPAFLPCELKPHGLVDCNWLFLKSVPRFSAAASCSNITRLSLISNRIHHLHNSDFVHLSNLRQLNLKWNCPPTGLSPLHFSCHMTIEPRTFLAMRTLEELNLSYNGITTVPRLPSSLVNLSLSHTNILVLDANSLAGLYSLRVLFMDGNCYYKNPCTGAVKVTPGALLGLSNLTHLSLKYNNLTKVPRQLPPSLEYLLVSYNLIVKLGPEDLANLTSLRVLDVGGNCRRCDHAPNPCIECGQKSLHLHPETFHHLSHLEGLVLKDSSLHTLNSSWFQGLVNLSVLDLSENFLYESITHTNAFQNLTRLRKLNLSFNYRKKVSFARLHLASSFKNLVSLQELNMNGIFFRLLNKYTLRWLADLPKLHTLHLQMNFINQAQLSIFGTFRALRFVDLSDNRISGPSTLSEATPEEADDAEQEELLSADPHPAPLSTPASKNFMDRCKNFKFTMDLSRNNLVTIKPEMFVNLSRLQCLSLSHNSIAQAVNGSQFLPLTNLQVLDLSHNKLDLYHWKSFSELPQLQALDLSYNSQPFSMKGIGHNFSFVTHLSMLQSLSLAHNDIHTRVSSHLNSNSVRFLDFSGNGMGRMWDEGGLYLHFFQGLSGLLKLDLSQNNLHILRPQNLDNLPKSLKLLSLRDNYLSFFNWTSLSFLPNLEVLDLAGNQLKALTNGTLPNGTLLQKLDVSSNSIVSVVPAFFALAVELKEVNLSHNILKTVDRSWFGPIVMNLTVLDVRSNPLHCACGAAFVDLLLEVQTKVPGLANGVKCGSPGQLQGRSIFAQDLRLCLDEVLSWDCFGLSLLAVAVGMVVPILHHLCGWDVWYCFHLCLAWLPLLARSRRSAQTLPYDAFVVFDKAQSAVADWVYNELRVRLEERRGRRALRLCLEDRDWLPGQTLFENLWASIYGSRKTLFVLAHTDRVSGLLRTSFLLAQQRLLEDRKDVVVLVILRPDAHRSRYVRLRQRLCRQSVLFWPQQPNGQGGFWAQLSTALTRDNRHFYNQNFCRGPTAE

Variants of: B1
Assay: co-immunoprecipitation from isolated phagosomes, band densitometry
Settings: with TLR9-myc (in UNC93B1 KO iBMDMs), means ± SD of two independent experiments, parent: 1, read off a plot

Row | ratio to parent [A.U] | Variant
1 | 1.1 | chain 1 N272Q
2 | 1.3 | chain 1 N251Q

Source: publication PMC9301129
